Key:
Assay in all cases: cell-based or functional assay
[1] = target: T1, CD3 on T cells of human peripheral blood mononuclear cells (human, UniProt P07766 23-207)
[2] = target: PD-L1 on human cells (MDA-MB-231, MCF-7, 293T) (human, UniProt Q9NZQ7 19-290)
[3] = target: T1, CD3 on T cells of human peripheral …; remark: listed apart in the source

Sequence of PD-L1 on human cells (MDA-MB-231, MCF-7, 293T) (Q9NZQ7 19-290): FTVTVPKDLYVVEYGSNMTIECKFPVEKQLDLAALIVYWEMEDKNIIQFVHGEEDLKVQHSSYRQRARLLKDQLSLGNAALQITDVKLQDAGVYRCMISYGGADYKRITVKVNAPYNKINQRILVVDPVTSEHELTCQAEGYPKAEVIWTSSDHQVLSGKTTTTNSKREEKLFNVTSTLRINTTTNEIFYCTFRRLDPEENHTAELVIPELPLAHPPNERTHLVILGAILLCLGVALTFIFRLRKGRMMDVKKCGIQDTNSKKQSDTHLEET
T1 sequence (P07766 23-207): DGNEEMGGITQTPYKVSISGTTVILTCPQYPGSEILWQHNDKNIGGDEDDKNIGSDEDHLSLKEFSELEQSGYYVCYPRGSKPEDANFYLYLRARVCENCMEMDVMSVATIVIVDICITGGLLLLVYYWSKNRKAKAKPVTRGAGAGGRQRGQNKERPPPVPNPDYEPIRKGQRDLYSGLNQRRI

| Binder | Death of cancer cells EC50 (MDA-MB-231 + human PBMC, flow cytometry) [1] [nM] | Death of cancer cells Emax (%) [1] [%] | IFNγ release EC50 [1] [nM] | IFNγ release Maximum concentration [1] [ng/mL] | Tumor lysis EC50, 293T (normal cells, low PD-L1 expression) + human PBMC [2] [nM] | Tumor lysis EC50, MCF7 (low PD-L1 expression) + human PBMC [2] [nM] | Tumor lysis EC50, MDA-MB-231 (high PD-L1 expression) + human PBMC [2] [nM] | fold reduction of the maximum cytokine release level compared to the CD3-binding monoclonal antibody [3] [fold] |
| --- | --- | --- | --- | --- | --- | --- | --- | --- |
| Protein complex of CD3-binding antibody variable region 1-Fc x PD-L1 antibody (bispecific antibody) chain 1: EVQLVESGGGLVQPGGSLRLSCAASGFSFTGYTMNWVRQAPGKGLEWVALINPYKGVTTYADSVKGRFTISRDNSKNTAYLQMNSLRAEDTAVYYCARSGYYGDSDWYFDVWGQGTLVTVSSDIQMTQSPSSLSASVGDRVTITCRASQDIRNYLNWYQQKPGKAPKLLIYYTSRLESGVPSRFSGSGSGTDYTLTISSLQPEDFATYYCQQGNTLPWTFGQGTKVEIKRT chain 2: EVQLLESGGGLVQPGGSLRLSCAASGFTFSSYIMMWVRQAPGKGLEWVSSIYPSGGITFYADTVKGRFTISRDNSKNTLYLQMNSLRAEDTAVYYCARIKLGTVTTVDYWGQGTLVTVSSASTKGPSVFPLAPSSKSTSGGTAALGCLVKDYFPEPVTVSWNSGALTSGVHTFPAVLQSSGLYSLSSVVTVPSSSLGTQTYICNVNHKPSNTKVDKKV chain 3: QSALTQPASVSGSPGQSITISCTGTSSDVGGYNYVSWYQQHPGKAPKLMIYDVSNRPSGVSNRFSGSKSGNTASLTISGLQAEDEADYYCSSYTSSSTRVFGTGTKVTVLGQPKANPTVTLFPPSSEELQANKATLVCLISDFYPGAVTVAWKADGSPVKAGVETTKPSKQSNNKYAASSYLSLTPEQWKSHRSYSCQVTHEGSTVEKTVAPTECS | 0.23 | 80 | 0.1 | 6.1 |  |  |  |  |
| Protein complex of CD3-binding antibody variable region 5-Fc x PD-L1 antibody (bispecific antibody) chain 1: EVQLVESGGGLVQPGGSLRLSCAASGFSFTGYTMNWVRQAPGKCLEWVALINPYKGVTTYADSVKGRFTISADNSKNTLYLQMNSLRAEDTAVYYCARSGYYGDSDWYFDVWGQGTLVTVSSDIQMTQSPSSLSASVGDRVTITCRASQDIRNYLNWYQQKPGKAPKLLIYYTSSLESGVPSRFSGSGSGTDYTLTISSLQPEDFATYYCQQGNTLPWTFGCGTKVEIKRT chain 2: EVQLLESGGGLVQPGGSLRLSCAASGFTFSSYIMMWVRQAPGKGLEWVSSIYPSGGITFYADTVKGRFTISRDNSKNTLYLQMNSLRAEDTAVYYCARIKLGTVTTVDYWGQGTLVTVSSASTKGPSVFPLAPSSKSTSGGTAALGCLVKDYFPEPVTVSWNSGALTSGVHTFPAVLQSSGLYSLSSVVTVPSSSLGTQTYICNVNHKPSNTKVDKKV chain 3: QSALTQPASVSGSPGQSITISCTGTSSDVGGYNYVSWYQQHPGKAPKLMIYDVSNRPSGVSNRFSGSKSGNTASLTISGLQAEDEADYYCSSYTSSSTRVFGTGTKVTVLGQPKANPTVTLFPPSSEELQANKATLVCLISDFYPGAVTVAWKADGSPVKAGVETTKPSKQSNNKYAASSYLSLTPEQWKSHRSYSCQVTHEGSTVEKTVAPTECS | 0.18 | 66 | 10 | 4.4 |  |  |  |  |
| Protein complex of CD3-binding antibody variable region 7-Fc x PD-L1 antibody (bispecific antibody) chain 1: EVQLVESGGGLVQPGGSLRLSCAASGFSFTGYTMNWVRQAPGKGLEWVALINPYKGVTTYADSVKGRFTISQDNSKNTLYLQMNSLRAEDTAVYYCARSGYYGDSDWYFDVWGQGTLVTVSSDIQMTQSPSSLSASVGDRVTITCRASQDIRNYLNWYQQKPGKAPKLLIYYTSSLESGVPSRFSGSGSGTDYTLTISSLQPEDFATYYCQQGNTLPWTFGQGTKVEIKRT chain 2: EVQLLESGGGLVQPGGSLRLSCAASGFTFSSYIMMWVRQAPGKGLEWVSSIYPSGGITFYADTVKGRFTISRDNSKNTLYLQMNSLRAEDTAVYYCARIKLGTVTTVDYWGQGTLVTVSSASTKGPSVFPLAPSSKSTSGGTAALGCLVKDYFPEPVTVSWNSGALTSGVHTFPAVLQSSGLYSLSSVVTVPSSSLGTQTYICNVNHKPSNTKVDKKV chain 3: QSALTQPASVSGSPGQSITISCTGTSSDVGGYNYVSWYQQHPGKAPKLMIYDVSNRPSGVSNRFSGSKSGNTASLTISGLQAEDEADYYCSSYTSSSTRVFGTGTKVTVLGQPKANPTVTLFPPSSEELQANKATLVCLISDFYPGAVTVAWKADGSPVKAGVETTKPSKQSNNKYAASSYLSLTPEQWKSHRSYSCQVTHEGSTVEKTVAPTECS | 2.26 | 68 | 15.3 | 9.3 |  |  |  |  |
| Protein complex of CD3-binding antibody variable region 4-Fc x PD-L1 antibody (bispecific antibody) chain 1: EVQLVESGGGLVQPGGSLRLSCAASGFSFTGYTMNWVRQAPGKGLEWVALINPYKGVTTYADSVKGRFTISADNSKNTLYLQMNSLRAEDTAVYYCARSGYYGDSDWYFDVWGQGTLVTVSSDIQMTQSPSSLSASVGDRVTITCRASQDIRNYLNWYQQKPGKAPKLLIYYTSSLESGVPSRFSGSGSGTDYTLTISSLQPEDFATYYCQQGNTLPWTFGQGTKVEIKRT chain 2: EVQLLESGGGLVQPGGSLRLSCAASGFTFSSYIMMWVRQAPGKGLEWVSSIYPSGGITFYADTVKGRFTISRDNSKNTLYLQMNSLRAEDTAVYYCARIKLGTVTTVDYWGQGTLVTVSSASTKGPSVFPLAPSSKSTSGGTAALGCLVKDYFPEPVTVSWNSGALTSGVHTFPAVLQSSGLYSLSSVVTVPSSSLGTQTYICNVNHKPSNTKVDKKV chain 3: QSALTQPASVSGSPGQSITISCTGTSSDVGGYNYVSWYQQHPGKAPKLMIYDVSNRPSGVSNRFSGSKSGNTASLTISGLQAEDEADYYCSSYTSSSTRVFGTGTKVTVLGQPKANPTVTLFPPSSEELQANKATLVCLISDFYPGAVTVAWKADGSPVKAGVETTKPSKQSNNKYAASSYLSLTPEQWKSHRSYSCQVTHEGSTVEKTVAPTECS | 0.18 | 79 | 31.2 | 2.6 |  |  |  |  |
| Protein complex of CD3-binding antibody variable region 6-Fc x PD-L1 antibody (bispecific antibody) chain 1: EVQLVESGGGLVQPGGSLRLSCAASGFSFTGYTMNWVRQAPGKGLEWVALINPYKGVTTYADSVKGRFTISDDNSKNTLYLQMNSLRAEDTAVYYCARSGYYGDSDWYFDVWGQGTLVTVSSDIQMTQSPSSLSASVGDRVTITCRASQDIRNYLNWYQQKPGKAPKLLIYYTSSLESGVPSRFSGSGSGTDYTLTISSLQPEDFATYYCQQGNTLPWTFGQGTKVEIKRT chain 2: EVQLLESGGGLVQPGGSLRLSCAASGFTFSSYIMMWVRQAPGKGLEWVSSIYPSGGITFYADTVKGRFTISRDNSKNTLYLQMNSLRAEDTAVYYCARIKLGTVTTVDYWGQGTLVTVSSASTKGPSVFPLAPSSKSTSGGTAALGCLVKDYFPEPVTVSWNSGALTSGVHTFPAVLQSSGLYSLSSVVTVPSSSLGTQTYICNVNHKPSNTKVDKKV chain 3: QSALTQPASVSGSPGQSITISCTGTSSDVGGYNYVSWYQQHPGKAPKLMIYDVSNRPSGVSNRFSGSKSGNTASLTISGLQAEDEADYYCSSYTSSSTRVFGTGTKVTVLGQPKANPTVTLFPPSSEELQANKATLVCLISDFYPGAVTVAWKADGSPVKAGVETTKPSKQSNNKYAASSYLSLTPEQWKSHRSYSCQVTHEGSTVEKTVAPTECS | 3.5 | 68 | 16.4 | 5.1 |  |  |  |  |
| Protein complex of CD3-binding antibody variable region 2-Fc x PD-L1 antibody (bispecific antibody) scFv-Fc: EVQLVESGGGLVQPGGSLRLSCAASGFSFTGYTMNWVRQAPGKGLEWVALINPYKGVTTYADSVKGRFTISRDNSKNTLYLQMNSLRAEDTAVYYCARSGYYGDSDWYFDVWGQGTLVTVSSGGGGSGGGGSGGGGSDIQMTQSPSSLSASVGDRVTITCRASQDIRNYLNWYQQKPGKAPKLLIYYTSSLESGVPSRFSGSGSGTDYTLTISSLQPEDFATYYCQQGNTLPWTFGQGTKVEIKRTEPKSSDKTHTCPPCPAPEAAGGPSVFLFPPKPKDTLMISRTPEVTCVVVDVSHEDPEVKFNWYVDGVEVHNAKTKPREEQYNSTYRVVSVLTVLHQDWLNGKEYKCKVSNKALPAPIEKTISKAKGQPREPQVYTGPPSRDELTKNQVSLSCAVKGFYPSDIAVEWESNGQPENNYKTTPPVLDSDGSFFLVSKLTVDKSRWQQGNVFSCSVMHEALHNHYTQKSLSLSPGK heavy: not shown light: QSALTQPASVSGSPGQSITISCTGTSSDVGGYNYVSWYQQHPGKAPKLMIYDVSNRPSGVSNRFSGSKSGNTASLTISGLQAEDEADYYCSSYTSSSTRVFGTGTKVTVLGQPKANPTVTLFPPSSEELQANKATLVCLISDFYPGAVTVAWKADGSPVKAGVETTKPSKQSNNKYAASSYLSLTPEQWKSHRSYSCQVTHEGSTVEKTVAPTECS | 0.05 |  | 2.5 |  | 0.0313 | 0.15 | 0.0945 |  |
| Protein complex of CD3-binding antibody variable region 3-Fc x PD-L1 antibody (bispecific antibody) scFv-Fc: EVQLVESGGGLVQPGGSLRLSCAASGFSFTGYTMNWVRQAPGKCLEWVALINPYKGVTTYADSVKGRFTISRDNSKNTLYLQMNSLRAEDTAVYYCARSGYYGDSDWYFDVWGQGTLVTVSSGGGGSGGGGSGGGGSDIQMTQSPSSLSASVGDRVTITCRASQDIRNYLNWYQQKPGKAPKLLIYYTSSLESGVPSRFSGSGSGTDYTLTISSLQPEDFATYYCQQGNTLPWTFGCGTKVEIKRTEPKSSDKTHTCPPCPAPEAAGGPSVFLFPPKPKDTLMISRTPEVTCVVVDVSHEDPEVKFNWYVDGVEVHNAKTKPREEQYNSTYRVVSVLTVLHQDWLNGKEYKCKVSNKALPAPIEKTISKAKGQPREPQVYTGPPSRDELTKNQVSLSCAVKGFYPSDIAVEWESNGQPENNYKTTPPVLDSDGSFFLVSKLTVDKSRWQQGNVFSCSVMHEALHNHYTQKSLSLSPGK heavy: not shown light: QSALTQPASVSGSPGQSITISCTGTSSDVGGYNYVSWYQQHPGKAPKLMIYDVSNRPSGVSNRFSGSKSGNTASLTISGLQAEDEADYYCSSYTSSSTRVFGTGTKVTVLGQPKANPTVTLFPPSSEELQANKATLVCLISDFYPGAVTVAWKADGSPVKAGVETTKPSKQSNNKYAASSYLSLTPEQWKSHRSYSCQVTHEGSTVEKTVAPTECS | 0.06 |  | 0.1 |  |  |  |  | 10.5 |

From patent US20260258128A1 (MUSTBIO, published 2026)
